These are literature values, as cited in US5998408A, “Triterpene derivatives with immunosuppressant activity” (Merck & Co., Inc., priority 1997, dated 1999).

This data set concerns the target T1, Kv 1.3 channels (CHO cells transfected with Kv 1.3 channels) (Homo sapiens, UniProt P22001).
T1 construct: expressed in transfected cells; host or cells: CHO cells
As to conditions: stated property of the reference blocker used to set the efflux window.

T1 sequence (P22001 whole entry): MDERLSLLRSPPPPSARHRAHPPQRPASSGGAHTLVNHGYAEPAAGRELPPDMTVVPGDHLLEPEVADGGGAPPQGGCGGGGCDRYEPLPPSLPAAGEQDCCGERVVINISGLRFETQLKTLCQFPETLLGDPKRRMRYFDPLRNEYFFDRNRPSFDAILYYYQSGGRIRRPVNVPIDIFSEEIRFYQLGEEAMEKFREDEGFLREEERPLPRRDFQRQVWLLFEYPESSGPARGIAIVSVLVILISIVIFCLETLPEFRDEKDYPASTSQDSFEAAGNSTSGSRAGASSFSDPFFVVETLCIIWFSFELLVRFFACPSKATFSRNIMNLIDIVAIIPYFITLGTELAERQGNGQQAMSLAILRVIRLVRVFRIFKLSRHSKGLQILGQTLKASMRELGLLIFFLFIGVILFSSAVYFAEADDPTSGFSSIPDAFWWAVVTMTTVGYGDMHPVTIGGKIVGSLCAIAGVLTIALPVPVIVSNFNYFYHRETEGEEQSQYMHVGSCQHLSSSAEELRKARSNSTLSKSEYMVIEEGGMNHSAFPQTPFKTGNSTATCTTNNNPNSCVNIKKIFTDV

As for “margatoxin (TIINVKCTSPKQCLPPCKAQFGQSAGAKCMNGKCKCYPH; UniProt P40755 1-39, looked up)”, the IC50 (as a rule, the concentration that inhibits the measured activity by half) is 0.1 nM.
